Results: US11932673B2, “Sodium channel inhibitors” (priority 2017, dated 2024)

Experiments:
human Nav1.7 = human Nav1.7 (Homo sapiens, UniProt Q15858); assay: QPatch patch-clamp on CHO cells stably expressing human Nav1.7, four-point concentration-response (Example 21); assay type: cell-based; conditions: every 15-minute application of equivalent concentrations
Protocol: The effect of these KnotBodies on cells expressing human Nav1.7 (huNav1.7) channel was then assessed using QPatch automated patch-clamp platform (Sophion). For the testing of Nav1.7 ion channel currents, CHO cells stably expressing human Nav1.7 (GenBank accession number NM 002977; cell line catalogue number CT6003, Charles River Discovery, Cleveland, USA) were subjected to the QPatch electrophysiology assay in the presence or absence of the KnotBody fusions or the antibody isotypes (negative controls). Internal and external physiological solutions were freshly prepared prior to the assay. […] To these measured control currents four ascending concentrations (0.37, 1.1, 3.3 and 10 μM) of KnotBody or parental antibody isotypes (control molecules) were applied to the external bathing solution containing 0.1% BSA. […] The elicited, maximum outward current values measured during the −10 mV activating step for each solution period (a control, baseline level of current was determined at 15 minutes after application of the control external recording solution and a test level of current was determined after 15 minutes of application of each concentration of KnotBody or its isotype control) and average inhibition was determined. […] From these concentration-response curves IC50 values were calculated.

trypsin = assay: Phage TRF binding assay of KnotBody phage on immobilised biotinylated trypsin
Protocol: Phage display technology facilitates isolation of binders to any given target from large combinatorial repertoires based on proteins and peptides that can be presented on the surface of filamentous phage^105. In order to isolate functional knottin-antibody fusions from the KnotBody libraries multiple rounds of phage display selections on trypsin (cognate antigen for the EETI-II donor) were carried out. Phage particles were prepared by rescuing KnotBody libraries using trypsin cleavable helper phage^102,106 Two rounds of phage display selections were performed on 10 μg/ml biotinylated trypsin immobilised on Streptavidin (for Round-1) or Neutravidin (for round-2) coated Maxisorp™ immunotubes (Thermo Scientific, Cat No. 444202). In both rounds of selection, phage libraries were pre-incubated with streptavidin coated paramagnetic beads (Thermo Fisher Scientific, Cat. No. 11205D). These beads were removed prior to the addition the phage to the antigen tubes to limit the streptavidin binders entering the selection. Polyclonal phage preparations from round-2 selection outputs were analysed for trypsin binding using a time resolved fluorescence (TRF) binding assay. In this assay, polyclonal phage binding to biotinylated trypsin immobilised on neutravidin (Thermo Fisher Scientific, Cat. No 31000) coated Maxisorp™ plates (Thermo Scientific, Cat. No. 437111) was detected using a mouse anti-M13 antibody (GE Healthcare, Cat. No. 27-9420-01) followed by europium conjugated anti-mouse antibody (Perkin Elmer, Cat. No. AD0124).
In order to identify monoclonal KnotBodies with desired binding characteristics, 94 individual clones derived from 2 rounds of selection using EETI-II CDR1 or CDR2 libraries were picked into 96 well culture plates and phage were prepared from each clone. Methods for screening by monoclonal phage ELISA are known in the art^107. […] Clones with >3× binding signal above background were picked as positive clones and sequenced to identify unique clones. 14 and 42 unique binders were identified from EETI-II CDR1 and EETI-II CDR2 libraries respectively (Table 1). 18 binders from the EETI-II CDR2 library and 3 binders from the EETI-II-CDR1 library were chosen for further characterisation based on their VL and linker sequence diversity. These binders were assigned new clone identification numbers (Table 2). […] In order to confirm that the loss of trypsin binding was not due to reduced expression or display of pIII fusion phage was prepared from 11 (randomly chosen) KnotBodies and their GlyAla variants were analysed on a western blot using an antibody which recognises the product of gene 3 (pIII) using an anti-pIII antibody (MoBiTec GmbH) (FIG. 6).

LOX-1 = LOX-1 (Homo sapiens, UniProt P78380); assay: Phage TRF binding assay of adhiron-antibody fusions on LOX-1; conditions: monoclonal phage; LOX-1 directly immobilised; non-specific binding checked on cMET-FC, GAS6-CD4, FGFR4-CD4, UPA, B-gal
Protocol: In order to test the functionality of these adhiron-antibody fusions, monoclonal phage prepared from each clone was assessed for binding to LOX-1 in a TRF binding assay. In this assay, LOX-1 (immobilised directly on Maxisorp™ plates) binding of phage displaying adhiron-antibody fusion was detected using a mouse anti-M13 antibody (GE Healthcare) followed by europium conjugated anti-mouse antibody (Perkin Elmer). Parent KnotBodies KB_A07 and KB_A12 (EETI-II fusions) were included as controls. Proteins cMET-FC, GAS6-CD4, FGFR4-CD4, UPA and B-gal were used to examine non-specific binding.

Chain of human Nav1.7 (Q15858 other isoform, or with tags, fused parts or gaps): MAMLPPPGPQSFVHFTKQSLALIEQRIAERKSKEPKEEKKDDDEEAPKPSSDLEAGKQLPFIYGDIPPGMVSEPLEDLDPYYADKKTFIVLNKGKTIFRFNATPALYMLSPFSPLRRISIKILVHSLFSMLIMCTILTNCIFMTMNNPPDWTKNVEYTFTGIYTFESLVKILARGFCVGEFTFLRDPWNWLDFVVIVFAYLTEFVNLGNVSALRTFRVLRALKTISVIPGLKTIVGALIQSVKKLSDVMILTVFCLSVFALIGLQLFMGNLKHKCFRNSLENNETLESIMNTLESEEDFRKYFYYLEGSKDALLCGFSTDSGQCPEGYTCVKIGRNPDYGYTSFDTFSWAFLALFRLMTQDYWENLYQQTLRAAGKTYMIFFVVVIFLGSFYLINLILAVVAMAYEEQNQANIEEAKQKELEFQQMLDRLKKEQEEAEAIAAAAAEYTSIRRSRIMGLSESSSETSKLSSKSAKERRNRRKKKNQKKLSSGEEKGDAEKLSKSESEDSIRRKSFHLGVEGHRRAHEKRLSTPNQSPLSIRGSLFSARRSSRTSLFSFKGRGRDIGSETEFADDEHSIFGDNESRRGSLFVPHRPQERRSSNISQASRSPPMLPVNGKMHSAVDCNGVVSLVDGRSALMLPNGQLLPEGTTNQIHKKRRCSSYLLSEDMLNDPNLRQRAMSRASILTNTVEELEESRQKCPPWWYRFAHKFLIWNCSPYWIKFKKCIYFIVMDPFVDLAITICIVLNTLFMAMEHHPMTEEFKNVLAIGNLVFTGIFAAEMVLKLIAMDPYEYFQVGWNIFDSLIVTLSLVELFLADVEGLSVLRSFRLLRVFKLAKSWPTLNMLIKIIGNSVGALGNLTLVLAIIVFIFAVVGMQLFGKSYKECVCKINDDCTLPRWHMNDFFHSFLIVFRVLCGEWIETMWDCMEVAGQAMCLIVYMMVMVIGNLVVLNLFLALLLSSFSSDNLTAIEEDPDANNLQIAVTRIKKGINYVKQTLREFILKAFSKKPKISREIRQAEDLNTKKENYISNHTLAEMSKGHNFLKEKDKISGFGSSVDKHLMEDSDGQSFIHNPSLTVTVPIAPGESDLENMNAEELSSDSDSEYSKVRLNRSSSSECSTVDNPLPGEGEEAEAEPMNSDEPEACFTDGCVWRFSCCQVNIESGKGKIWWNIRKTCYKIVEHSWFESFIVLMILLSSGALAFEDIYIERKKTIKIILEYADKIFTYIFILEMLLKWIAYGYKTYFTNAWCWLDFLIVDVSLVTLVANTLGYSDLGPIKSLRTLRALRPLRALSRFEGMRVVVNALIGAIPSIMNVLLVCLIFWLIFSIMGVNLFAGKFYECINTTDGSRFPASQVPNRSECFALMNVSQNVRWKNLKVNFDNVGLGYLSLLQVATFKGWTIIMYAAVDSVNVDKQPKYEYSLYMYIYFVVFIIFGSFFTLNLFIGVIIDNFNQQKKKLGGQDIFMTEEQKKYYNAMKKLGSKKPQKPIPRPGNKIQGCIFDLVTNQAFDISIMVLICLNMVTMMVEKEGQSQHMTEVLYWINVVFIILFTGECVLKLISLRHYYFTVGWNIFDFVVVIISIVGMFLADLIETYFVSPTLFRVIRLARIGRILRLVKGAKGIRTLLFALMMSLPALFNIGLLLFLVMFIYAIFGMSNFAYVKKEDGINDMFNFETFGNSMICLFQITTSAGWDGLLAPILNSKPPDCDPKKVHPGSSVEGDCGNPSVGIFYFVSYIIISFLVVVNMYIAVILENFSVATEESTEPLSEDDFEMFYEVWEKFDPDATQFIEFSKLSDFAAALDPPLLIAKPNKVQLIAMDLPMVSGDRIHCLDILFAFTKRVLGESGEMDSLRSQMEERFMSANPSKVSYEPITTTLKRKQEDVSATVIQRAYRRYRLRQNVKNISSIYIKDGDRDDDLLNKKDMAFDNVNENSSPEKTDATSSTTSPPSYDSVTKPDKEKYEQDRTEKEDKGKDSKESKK

B1: KB_A12: EETI-II VL CDR2 KnotBody, D1A12 VH, VL SEQ ID NO: 105/373; parental/isotype control (antibody, V domains shown)
VH: EVQLVESGGGLVRPGGSLRLSCAASGFTFSSYAMSWVRQAPGKGLEWVSAISGSGGSTYYADSVKGRFTISRDNTKNSLYLQMTSLRADDTAFYYCVKDFGPGYGTGWFDYWGPGTLVTVSS
VL: QSVLTQPPSVSEAPRQRVTITCSGSSSNIGNNAVNWYQQLPGKAPKLLIYAAGRCPRILMRCKQDSDCLAGCVCGPNGFCGANSGVSDRFSAAKSGTSASLAINGLRSEDEADYYCAAWDDSLNGYVFGTGTKLTVLG
cumulative current loss (human Nav1.7): ~5% | % reduction in binding signal (trypsin; […], monoclonal phage, streptavidin coated plates): 99% | Tryspin binding signal (FU) (trypsin; monoclonal phage supernatant, biotinylated trypsin on neutravidin coated plates, TRF): 69349 FU | binding to LOX-1 (LOX-1): no detectable binding to the LOX-1
